Measurements reported in publication PMC3323579, “Direct Ubiquitin Independent Recognition and Degradation of a Folded Protein by the Eukaryotic Proteasomes-Origin of Intrinsic Degradation Signals” (PLoS ONE, 2012).
No end group written: not given here. *: point of attachment. Biotin = O=C1N[C@H]2[C@H](CS[C@H]2CCCCC(=O)*)N1

Target: yeast 26S proteasome (RPN11-3XFLAG) (yeast, UniProt P43588 1-306)
Experiment: ELISA; competition: 8 nM apoMb on immobilised 26S proteasome with peptides 100 µM to 0.01 µM; 100 nM MG132 in all incubations; Ki from a one site binding fit
Settings: both partners purified

In the case of Biotin-EWQLVLHVWAKVEAD [A-helix peptide of myoglobin], the Ki is reported as 0.8 ± 0.4 µM.
